Assay results from PMC5343618.
Values joined by “and” are separate entries in the source; they are usually repeats but may differ in a detail not shown here. Equal entries are not always repeated. Blank lines part the entries; values can stand above or below the substance they belong to.

What was measured:
[1] = target: RDPE truncated by a single amino acid from the N-terminus (ΔN1) (Ruminococcus sp. 5_1_39BFAA); assay: native gel or EMSA; blue native PAGE (BN-PAGE) of the soluble cytoplasmic fraction and the culture supernatant of B. subtilis after 24 h of cultivation; non-reducing sample buffer, Coomassie blue; mass estimated within ±15%
[2] = target: RDPE variant V106A (Ruminococcus sp. 5_1_39BFAA); assay: as above
[3] = target: RDPE variant G181A (Ruminococcus sp. 5_1_39BFAA); assay: as above
[4] = target: D-psicose 3-epimerase from Ruminococcus sp. 5_1_39BFAA (RDPE) (Ruminococcus sp. 5_1_39BFAA); assay: native gel or EMSA; soluble protein fractions combined with SDS at 0, 0.5%, 1% and 2% and run on a 10% acrylamide native gel
[5] = target: D-psicose 3-epimerase from Ruminococcus sp. 5_1_39BFAA (RDPE) (Ruminococcus sp. 5_1_39BFAA); assay: native gel or EMSA; blue native PAGE (BN-PAGE) of the soluble cytoplasmic fraction and the culture supernatant of B. subtilis after 24 h of cultivation; non-reducing sample buffer, Coomassie blue; mass estimated within ±15%
[6] = target: RDPE derivative with a C-terminal 6-His tag (RDPE-H) (Ruminococcus sp. 5_1_39BFAA); assay: cross-linking; in vivo cross-linking of B. subtilis cells with 0.5 mM DSS in PBS pH 8.3, 20 min at 37 °C; cells recovered 1 h in fresh medium; 10% SDS-PAGE with β-mercaptoethanol and anti-His immunoblot of cell and supernatant fractions
[7] = target: RDPE variant D102A (Ruminococcus sp. 5_1_39BFAA); assay: native gel or EMSA; blue native PAGE (BN-PAGE) of the soluble cytoplasmic fraction and the culture supernatant of B. subtilis after 24 h of cultivation; non-reducing sample buffer, Coomassie blue; mass estimated within ±15%
[8] = target: RDPE variant V175A (Ruminococcus sp. 5_1_39BFAA); assay: as above
[9] = target: RDPE variant V182A (Ruminococcus sp. 5_1_39BFAA); assay: as above
[10] = target: RDPE variant L184A (Ruminococcus sp. 5_1_39BFAA); assay: as above
[11] = target: RDPE variant 100A (Leu100 to alanine) (Ruminococcus sp. 5_1_39BFAA); assay: as above
[12] = target: full-length RDPE fused to mCherry (RDPE-mCh) (Ruminococcus sp. 5_1_39BFAA); assay: as above
[13] = target: RDPE variant I103A (Ruminococcus sp. 5_1_39BFAA); assay: as above
[14] = target: RDPE variant G107A (Ruminococcus sp. 5_1_39BFAA); assay: as above
[15] = target: RDPE variant V180A (Ruminococcus sp. 5_1_39BFAA); assay: as above

Substance: RDPE truncated by a single amino acid from the N-terminus (ΔN1) (enzyme)
- stoichiometry N [1]: 4

Substance: RDPE variant V106A (enzyme)
- stoichiometry N [2]: 4

Substance: D-psicose 3-epimerase from Ruminococcus sp. 5_1_39BFAA (RDPE) (enzyme)
- stoichiometry N [4]: 3 and 2
- stoichiometry N [5]: 4

Substance: RDPE derivative with a C-terminal 6-His tag (RDPE-H) (enzyme)
- stoichiometry N [6]: 4

Substance: RDPE variant D102A (enzyme)
- stoichiometry N [7]: 4

Substance: RDPE variant V182A (enzyme)
- stoichiometry N [9]: 4

Substance: RDPE variant L184A (enzyme)
- stoichiometry N [10]: 4

Substance: RDPE variant 100A (Leu100 to alanine) (enzyme)
- stoichiometry N [11]: 4

Substance: RDPE variant V180A (enzyme)
- stoichiometry N [15]: 4

Next, values leading:

- stoichiometry N [3]: 4
Substance: RDPE variant G181A (enzyme)

- stoichiometry N [8]: 4
Substance: RDPE variant V175A (enzyme)

- stoichiometry N [12]: 4
Substance: full-length RDPE fused to mCherry (RDPE-mCh) (enzyme)

- stoichiometry N [13]: 4
Substance: RDPE variant I103A (enzyme)

- stoichiometry N [14]: 4
Substance: RDPE variant G107A (enzyme)
